# Earlier results in publication PMC4440832.
# Key:
# [1] = biological target: BMP2 (Homo sapiens) (UniProt P12643); assay: SPR
# [2] = biological target: BMP6 (Homo sapiens) (UniProt P22004); assay: SPR
# [3] = biological target: BMP4 (Homo sapiens) (UniProt P12644); assay: SPR
# [4] = biological target: BMP4 (Homo sapiens) (UniProt P12644); assay: radioligand binding
# [5] = biological target: BMP2 (Homo sapiens) (UniProt P12643); assay: radioligand binding
# [6] = biological target: netrin (UniProt O95631)
# [7] = biological target: BMP5 (Homo sapiens) (UniProt P22003); assay: SPR
# [8] = biological target: BMP7 (Homo sapiens) (UniProt P18075); assay: SPR
# Sequence of BMP7 (Homo sapiens) (P18075 293-431): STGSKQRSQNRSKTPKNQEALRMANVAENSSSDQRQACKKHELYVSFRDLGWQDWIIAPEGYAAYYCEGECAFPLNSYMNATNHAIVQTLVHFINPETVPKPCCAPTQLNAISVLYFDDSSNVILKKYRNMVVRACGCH
# Sequence of HJV (Q6ZVN8 36-400): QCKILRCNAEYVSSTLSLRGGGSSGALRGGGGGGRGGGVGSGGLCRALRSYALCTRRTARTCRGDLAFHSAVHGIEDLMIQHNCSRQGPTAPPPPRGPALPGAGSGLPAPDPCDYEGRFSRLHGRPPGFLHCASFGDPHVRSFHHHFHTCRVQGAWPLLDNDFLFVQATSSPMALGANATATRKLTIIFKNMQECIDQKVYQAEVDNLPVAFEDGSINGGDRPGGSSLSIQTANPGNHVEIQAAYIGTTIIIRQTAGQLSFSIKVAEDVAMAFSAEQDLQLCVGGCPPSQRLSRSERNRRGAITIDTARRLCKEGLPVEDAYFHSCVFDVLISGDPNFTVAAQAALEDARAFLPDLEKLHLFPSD
# Sequence of RGMb (Q6NW40 46-413): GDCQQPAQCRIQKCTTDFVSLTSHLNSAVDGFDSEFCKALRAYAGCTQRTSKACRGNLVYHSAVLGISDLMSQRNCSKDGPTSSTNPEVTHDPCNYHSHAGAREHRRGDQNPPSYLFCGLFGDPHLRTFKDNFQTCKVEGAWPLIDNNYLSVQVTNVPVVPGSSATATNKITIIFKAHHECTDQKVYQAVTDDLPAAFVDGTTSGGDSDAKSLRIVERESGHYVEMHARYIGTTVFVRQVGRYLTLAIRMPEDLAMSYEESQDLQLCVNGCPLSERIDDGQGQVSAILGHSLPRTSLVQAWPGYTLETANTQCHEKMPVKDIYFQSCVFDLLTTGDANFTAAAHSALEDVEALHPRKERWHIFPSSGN
# Sequence of BMP6 (Homo sapiens) (P22004 375-513): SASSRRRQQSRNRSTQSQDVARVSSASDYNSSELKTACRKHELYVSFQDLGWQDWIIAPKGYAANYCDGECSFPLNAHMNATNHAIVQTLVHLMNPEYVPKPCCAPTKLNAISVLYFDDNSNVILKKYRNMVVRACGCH
# Sequence of BMP2 (Homo sapiens) (P12643 283-396): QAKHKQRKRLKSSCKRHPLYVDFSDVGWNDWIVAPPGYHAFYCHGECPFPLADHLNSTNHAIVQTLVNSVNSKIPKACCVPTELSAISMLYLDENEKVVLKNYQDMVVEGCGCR
# Sequence of RGMa.Fc ECD (Q6PCX7 48-427): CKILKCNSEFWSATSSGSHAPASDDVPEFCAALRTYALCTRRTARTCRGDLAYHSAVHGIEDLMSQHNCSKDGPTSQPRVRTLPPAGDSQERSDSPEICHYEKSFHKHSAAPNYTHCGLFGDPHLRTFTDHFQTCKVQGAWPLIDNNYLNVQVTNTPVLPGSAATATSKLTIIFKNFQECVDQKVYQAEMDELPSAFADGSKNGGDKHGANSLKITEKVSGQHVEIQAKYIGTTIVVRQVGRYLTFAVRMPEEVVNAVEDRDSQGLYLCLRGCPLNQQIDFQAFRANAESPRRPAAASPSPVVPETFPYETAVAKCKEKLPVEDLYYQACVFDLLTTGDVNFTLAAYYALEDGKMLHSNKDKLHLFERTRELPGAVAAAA
# Sequence of RGMa (Q96B86 48-424): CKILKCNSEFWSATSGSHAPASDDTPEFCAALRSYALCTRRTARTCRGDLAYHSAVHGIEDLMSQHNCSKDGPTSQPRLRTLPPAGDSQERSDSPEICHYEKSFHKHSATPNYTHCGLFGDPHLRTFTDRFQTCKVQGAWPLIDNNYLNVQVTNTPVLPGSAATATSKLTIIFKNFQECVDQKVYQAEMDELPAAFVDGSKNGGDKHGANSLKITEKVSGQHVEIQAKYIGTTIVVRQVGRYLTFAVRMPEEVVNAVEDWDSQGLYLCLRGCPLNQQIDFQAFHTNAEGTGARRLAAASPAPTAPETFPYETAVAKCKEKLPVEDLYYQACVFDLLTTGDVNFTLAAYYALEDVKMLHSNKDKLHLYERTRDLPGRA
# Sequence of BMP4 (Homo sapiens) (P12644 293-408): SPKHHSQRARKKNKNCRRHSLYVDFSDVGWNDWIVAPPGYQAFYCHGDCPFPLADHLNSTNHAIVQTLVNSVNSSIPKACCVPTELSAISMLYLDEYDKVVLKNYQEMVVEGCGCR
# Sequence of neogenin (Q92859 34-1105): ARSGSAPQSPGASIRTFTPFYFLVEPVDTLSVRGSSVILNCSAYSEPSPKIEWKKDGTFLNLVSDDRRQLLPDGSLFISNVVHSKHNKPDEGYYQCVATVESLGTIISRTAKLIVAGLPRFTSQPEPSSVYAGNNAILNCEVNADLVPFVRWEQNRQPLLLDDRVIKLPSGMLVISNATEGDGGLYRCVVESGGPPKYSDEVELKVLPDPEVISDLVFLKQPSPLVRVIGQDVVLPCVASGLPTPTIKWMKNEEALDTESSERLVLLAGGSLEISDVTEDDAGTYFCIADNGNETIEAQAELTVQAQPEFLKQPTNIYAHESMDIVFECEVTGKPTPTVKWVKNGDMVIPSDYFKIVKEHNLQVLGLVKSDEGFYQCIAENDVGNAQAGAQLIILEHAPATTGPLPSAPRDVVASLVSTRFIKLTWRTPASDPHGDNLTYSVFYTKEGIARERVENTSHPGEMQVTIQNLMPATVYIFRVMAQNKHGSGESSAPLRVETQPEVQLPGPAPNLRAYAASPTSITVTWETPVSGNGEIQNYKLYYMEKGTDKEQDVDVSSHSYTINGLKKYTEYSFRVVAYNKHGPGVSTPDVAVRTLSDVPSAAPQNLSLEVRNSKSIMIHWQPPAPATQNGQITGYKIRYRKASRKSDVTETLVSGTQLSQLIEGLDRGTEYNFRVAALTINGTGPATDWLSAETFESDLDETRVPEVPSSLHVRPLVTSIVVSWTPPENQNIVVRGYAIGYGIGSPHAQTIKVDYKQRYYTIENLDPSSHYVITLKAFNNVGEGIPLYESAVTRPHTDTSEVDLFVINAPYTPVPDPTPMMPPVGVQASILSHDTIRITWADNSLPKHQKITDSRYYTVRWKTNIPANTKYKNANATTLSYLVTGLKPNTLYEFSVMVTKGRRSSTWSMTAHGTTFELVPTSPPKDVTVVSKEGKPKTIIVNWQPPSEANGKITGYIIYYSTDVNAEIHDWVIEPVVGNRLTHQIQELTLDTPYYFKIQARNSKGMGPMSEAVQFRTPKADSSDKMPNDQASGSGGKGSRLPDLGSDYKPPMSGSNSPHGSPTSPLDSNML
# Sequence of RGMb.Fc ECD (Q7TQ33 49-415): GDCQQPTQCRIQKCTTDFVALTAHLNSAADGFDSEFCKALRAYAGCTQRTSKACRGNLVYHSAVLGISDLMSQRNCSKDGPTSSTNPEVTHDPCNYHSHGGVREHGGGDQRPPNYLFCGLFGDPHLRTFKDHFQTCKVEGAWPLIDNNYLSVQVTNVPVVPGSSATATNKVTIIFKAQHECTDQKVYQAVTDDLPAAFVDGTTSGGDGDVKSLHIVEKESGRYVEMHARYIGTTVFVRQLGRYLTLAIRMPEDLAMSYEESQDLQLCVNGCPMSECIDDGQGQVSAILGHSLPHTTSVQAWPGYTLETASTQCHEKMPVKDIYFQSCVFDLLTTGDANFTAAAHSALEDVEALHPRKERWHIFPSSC
# Sequence of BMP5 (Homo sapiens) (P22003 317-454): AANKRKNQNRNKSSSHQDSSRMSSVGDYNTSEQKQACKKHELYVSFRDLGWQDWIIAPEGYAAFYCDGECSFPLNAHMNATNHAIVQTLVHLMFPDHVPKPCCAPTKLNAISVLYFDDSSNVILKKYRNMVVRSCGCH
Substance,Kd [1],Kd [2],Kd [5],other results
RGMa (from UniProt Q96B86),22 nM,55 nM,–,–
RGMa.Fc ECD (from UniProt Q6PCX7),2.46 nM,–,2.4 nM,Kd [4]: 1.4 nM
neogenin (from UniProt Q92859),–,–,–,Kd [6]: 2 nM
HJV (from UniProt Q6ZVN8),–,8.1 nM,–,Kd [7]: 17 nM; Kd [8]: 20 nM

# Further lines, with some results ahead:
Kd [1],Kd [2],Kd [5],Substance,other results
5.5 nM,28 nM,–,RGMb (from UniProt Q6NW40),Kd [3]: 2.6 nM
–,–,1.5 nM,RGMb.Fc ECD (from UniProt Q7TQ33),–
